Experimental data from the supplement of paper PMC10567573.

B1: EIF5 (parent)
chain: KQTIGNSCKACGYRGMLDTHHKLC
B2: CCDC89 (parent)
chain: LNAELEEKMMQEAEKLKAQGEYSR

Variants of: B1
Assay: protein stability index of a GFP-peptide fusion (GPS, HEK-293T) (PSI 1-6); higher = more stable
Conditions: c terminus: a fixed tail appended
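Also: lentivirally expressed fusions sorted by FACS into six bins by GFP to DsRed ratio, PSI derived from sequencing read proportions per bin multiplied by bin number.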

Protein stability index, by site and new letter:
C24: Y 1.7 | T 1.57 | K 2.15 | W 2.21 | H 1.9 | D 2.25
H20: I 2.12 | F 2.07 | S 3.17 | A 2.24 | T 1.98 | N 2.92 | E 3.24 | G 2.56 | M 1.23
I4: F 3.02 | H 3.39 | T 3.29 | G 3.56 | R 3.31 | S 3.75
H21: M 2.89 | P 3.17 | T 3.17 | W 2.45 | N 3.25 | Y 3.32 | S 2.9 | C 3.17 | D 3.75
R14: S 3.51 | F 3.14 | P 3.69 | H 3.42 | V 3.15 | Y 2.64 | K 3.89
Y13: S 3.37 | I 2.16 | T 3.19 | F 3.21 | V 2.91 | W 2.45 | R 3.24
T19: L 2.29 | I 2.68 | R 2.79 | N 3.81 | D 4.48 | P 2.81 | C 3.45 | W 1.87
N6: D 3.63 | W 2.62 | A 3.1 | K 3.11 | M 2.83
C8: Q 1.91 | R 1.69 | D 2.48 | M 1.86 | A 2.06 | F 1.44 | E 2.68 | N 2.78
A10: K 3.29 | I 3.86 | C 3.09 | L 3.3 | E 4.16
L17: T 3.91 | I 3.33 | C 4.42 | K 3.44
S7: L 4.11 | T 3.29 | I 4.31 | A 3.96 | C 3.5 | E 3.82 | Q 4.08
G5: S 2.95 | H 2.96 | D 3.53 | E 4.09 | A 3.23 | W 2.34 | T 2.99
G12: N 2.25 | S 1.52 | L 1.92
K22: L 2.65 | N 2.93 | Y 2.73 | F 2.46 | E 2.96 | T 2.99
Q2: I 2.51 | R 2.56
M16: N 3.63 | R 3.29 | G 3.91 | T 4.14
D18: N 2.88 | G 2.81 | R 2.65 | C 3.19
K9: P 4.46 | V 3.13 | W 2.89 | I 2.97 | C 3.97 | F 2.16 | N 2.79
T3: K 3.4 | M 3.5 | H 3.67 | Q 3.06
L23: E 4.2 | P 3.28 | D 4.67 | N 3.83 | R 3.4 | K 3.36 | T 4.03 | F 3.64
G15: D 2.94 | Q 2.12 | P 2.93 | N 2.45 | C 2.44 | M 1.84
C11: M 1.73 | L 2.28 | K 1.88 | V 2.88 | Q 2.26
K1: T 3.48 | E 2.95 | M 2.36 | Y 2.55

Variants of: B2
Assay: as above
Conditions: c terminus: a fixed tail appended

Protein stability index: each site, then its substitutions
L16: C 5.36 | K 4.85 | G 5.09 | V 4.97 | Y 4.37 | Q 4.65 | S 5.76 | A 5.1 | N 5.17 | D 5.77 | T 5.14 | P 5.68 | I 5.82 | E 5.79 | W 4.6
K17: L 4.54 | C 4.02 | Q 5.22 | V 4.4 | W 3.79 | G 4.93 | R 4.41 | F 4.3 | D 5.47 | I 4.72 | P 5.65 | Y 4.43 | H 3.87
Y22: S 5.28 | M 5.29 | K 5.55 | C 5.25 | I 5.29 | L 5.34 | E 4.65 | G 5.63 | F 4.46 | N 5.79 | D 5.99 | Q 5.64
A18: D 4.95 | T 5.07 | N 5.09 | Q 5.3 | W 4.15 | G 4.43 | P 4.7 | C 4.79 | R 4.31 | L 3.87 | F 4.28 | I 4.32 | H 4.15 | M 4.71
Q11: R 4.76 | V 5.09 | W 4.22 | S 5.49 | Y 4.86 | T 5.67
E14: Q 5.15 | N 4.66 | F 4.05 | H 5.41 | D 5.19 | G 3.59 | A 4 | C 4.33 | L 4.5 | I 4.27
K15: R 4.84 | E 5.06 | M 5.82 | S 4.38 | H 5.2 | D 5.58 | A 5.41 | V 4.78 | G 5.26 | W 4.41 | N 4.71 | L 4.99 | C 5.03 | Q 5.41 | P 5.38 | Y 4.3
E21: T 4.19 | N 4.79 | A 4.77 | H 4.47 | G 4.17 | V 4.58 | D 4.92 | L 4.16 | R 4.98 | M 4.76 | K 5.46 | C 4.29 | I 4.62 | W 3.76 | Y 5.03 | S 4.39
R24: W 3.81 | A 5.49 | V 5.64 | G 5.81 | Q 4.63 | K 5.53 | I 4.86 | D 5.67 | N 5.03 | C 5.37 | F 4.66 | S 5.38 | H 5.78 | M 4.99 | P 5.48
G20: P 5.43 | H 4.35 | E 4.82 | R 4.85 | N 4.99 | V 5.31 | K 5.22 | I 3.68 | L 2.99 | Y 4.44 | A 4.98 | S 4.91 | C 2.96
A13: F 4.49 | H 4.85 | Y 5.28 | K 5.08 | M 5 | R 4.99 | V 4.64 | E 5.71 | C 4.94 | G 4.84 | S 4.68 | W 4.13 | I 4.38 | Q 4.5 | D 5.8 | T 5.26
Q19: F 3.64 | P 5.12 | K 5.3 | D 5.85 | M 4.13 | E 5.84 | S 5.19 | W 4.62 | C 4.66 | V 5.57 | L 2.99 | Y 2.53 | A 5.24 | N 4.82 | G 4.95 | T 5.18 | H 4.74 | I 3.83
E12: C 4.38 | K 4.67 | F 3.56 | V 4.12 | R 4.26 | W 4.42 | N 4.75 | Y 3.47 | P 5.4 | T 4.4 | I 3.28 | L 2.92 | A 4.42
S23: Q 5.04 | C 4.73 | Y 4.47 | H 3.95 | D 5.7 | V 4.43 | K 4.92 | G 5.13 | W 4.97 | M 5.11 | F 4.75 | A 4.62 | L 5.2 | T 4.98 | I 4.19 | N 4.51
